Experimental findings from patent US9125872B2, “Polyethylene glycol aerogels for targeted delivery of pharmaceutical drubs” (priority 2009, dated 2015) are described below.

Common to all, as to type: physicochemical
Data set [1] is described as follows: Solubility of purified solid protein-PEG conjugates in water.
The nature of data set [2]: Drug loading and biologics encapsulation in PEG aerogel granules. The method, then: To 1 gram PEG [MW=2,000,000] dissolved in 100 ml anhydrous toluene, 100 mg [0.1 gram] BSA powder is dispersed and the mixture was stirred at 38-45° C. for 30-60 minutes to allow coating/adsorption of soluble PEG molecules on solid BSA particles. 0.2 g benzoyl peroxide was heated in 15 ml anhydrous toluene at 85° C. for 10 minutes. After cooling to 76° C., the catalyst solution was added to the warm PEG-BSA suspension at 38° C., which raised the temperature to 43° C., and mixing was continued for 15 minutes. The solution was poured into a mold and stored in a glove box. Toluene was later removed from the gel by solvent extraction with supercritical carbon dioxide fluid to obtain dry solid aerogel encapsulating BSA fine particles.
5 ml (=2.6 g) granules from PEG aerogel #2 (2009 cold preparation) were desiccated overnight to remove any absorbed vapors during storage.
Gemzar [Eli Lilly, Indiana] solution was made by dissolving 200 mg Gemcitabine HCl in 5 ml 0.9% NaCl [sodium chloride] aqueous solution. 2.3 ml (0.61 g) PEG aerogel #1 [“hot” preparation, 2009] granules were desiccated overnight to remove any absorbed vapors during storage. […] The mixture was placed in a desiccator to remove excess water and render dry loaded aerogel granules.
BSA protein (MW=66,000) was used as an example of large biologic molecules to be encapsulated in PEG aerogel during the gelation process. The encapsulation method is described in the aerogel preparation section.

The nature of data set [3]: Sequential time release of BSA encapsulated in PEG aerogel in distilled water (UV-spectroscopy). As to conditions: room temperature. The procedure:
As an example of encapsulation and release of pharmaceutical biologics, release tests conducted using one sample weighing 13 mg PEG aerogel encapsulating 1 mg BSA protein in 10 ml distilled water at room temperature. Small solution samples were withdrawn at indicated time intervals above for BSA analysis with UV-spectroscopy at 280 and 260 nm wavelength. Results are calculated and tabulated.

[4] abbreviates: of the PEG aerogel granules carrying the drug/biologic.

On to “BSA-PEG-O: BSA linked to aerogel of PEG + Diglycidylether terminated PEG, 1000”, for which the “Solubility in Water” value in data set [1] (Body Temperature (37° C.)) and in data set [1] (Room Temperature (23° C.)) was “No” throughout.
As to “BSA-PEG: BSA surface-linked via EDC to PEG only aerogel”, the “Solubility in Water” value in data set [1] (Body Temperature (37° C.)) was “No”; in data set [1] (Body Temperature (37° C.), listed as aerogel-BSA “conjugate”), “water insoluble”; in data set [1] (Room Temperature (23° C.)), “No”.
As to “BSA-PEG-N: BSA linked to aerogel of PEG + Bis(3-aminopropyl) terminated PEG 1,500/2,100”, the “Solubility in Water” value in data set [1] (Body Temperature (37° C.)) and in data set [1] (Room Temperature (23° C.)) was “No” throughout.
Turning to bovine serum albumin [BSA Protein], the “Aerogel Density” value in data set [2] (setting [4]) is on record as 0.30 g/cc. For the same substance, the “Aerogel Porosity” value in data set [2] (setting [4]) turned out to be 75% vol %. For the same substance, the Loading/Encapsulation is reported as 77 mg/g Aerogel in data set [2] (weight of solution (or BSA) per g PEG aerogel) and 23 mg/ml Aerogel in data set [2] (weight of solution (or BSA) per ml PEG aerogel). The “Released BSA” value was 0.19 mg in data set [3] (15 minutes, 13 mg PEG aerogel with 1 mg BSA in 10 ml distilled water); 0.22 mg in data set [3] (3 hours (increment), distilled water); 0.26 mg in data set [3] (20 hours (increment), distilled water). Further, the “Cumulative Percent Release” value was 19 % of 1 mg in data set [3] (15 minutes, distilled water); 41 % of 1 mg in data set [3] (3 hours, distilled water); 67 % of 1 mg in data set [3] (20 hours, distilled water). For the same substance, the “Cumulative Release” value in data set [3] (15 minutes, distilled water) amounted to 0.19 mg; in data set [3] (3 hours, distilled water), 0.41 mg; in data set [3] (20 hours, distilled water), 0.67 mg.
